Substitutions are numbered along the chain they refer to. Names may count otherwise. Read-outs that look alike come from different tables or passages of the source.
B1: Sumo-His-tagged PFKM WT (enzyme, human, UniProt P08237 1-780, looked up)
chain: MTHEEHHAAKTLGIGKAIAVLTSGGDAQGMNAAVRAVVRVGIFTGARVFFVHEGYQGLVDGGDHIKEATWESVSMMLQLGGTVIGSARCKDFREREGRLRAAYNLVKRGITNLCVIGGDGSLTGADTFRSEWSDLLSDLQKAGKITDEEATKSSYLNIVGLVGSIDNDFCGTDMTIGTDSALHRIMEIVDAITTTAQSHQRTFVLEVMGRHCGYLALVTSLSCGADWVFIPECPPDDDWEEHLCRRLSETRTRGSRLNIIIVAEGAIDKNGKPITSEDIKNLVVKRLGYDTRVTVLGHVQRGGTPSAFDRILGSRMGVEAVMALLEGTPDTPACVVSLSGNQAVRLPLMECVQVTKDVTKAMDEKKFDEALKLRGRSFMNNWEVYKLLAHVRPPVSKSGSHTVAVMNVGAPAAGMNAAVRSTVRIGLIQGNRVLVVHDGFEGLAKGQIEEAGWSYVGGWTGQGGSKLGTKRTLPKKSFEQISANITKFNIQGLVIIGGFEAYTGGLELMEGRKQFDELCIPFVVIPATVSNNVPGSDFSVGADTALNTICTTCDRIKQSAAGTKRRVFIIETMGGYCGYLATMAGLAAGADAAYIFEEPFTIRDLQANVEHLVQKMKTTVKRGLVLRNEKCNENYTTDFIFNLYSEEGKGIFDSRKNVLGHMQQGGSPTPFDRNFATKMGAKAMNWMSGKIKESYRNGRIFANTPDSGCVLGMRKRALVFQPVAELKDQTDFEHRIPKEQWWLKLRPILKILAKYEIDLDTSDHAHLEHITRKRSGEAAV
B2: Sumo-His-tagged PFKM F639L (enzyme, human, UniProt P08237 1-780, looked up)
chain: B1 chain with F639L

Legend:
SEC [1] = biological target: the molecule itself; experiment: SEC
SEC [2] = biological target: the molecule itself; experiment: SEC; remark: listed apart in the source

Protein | stoichiometry N (SEC [1]) | stoichiometry N (SEC [2])
B1 | 2 | 4
B2 |  | 2

Source: article PMC12283967 (Nature Communications, 2025)
